Experimental data from article PMC2923189, “An Oligopeptide Transporter of Mycobacterium tuberculosis Regulates Cytokine Release and Apoptosis of Infected Macrophages” (PLoS ONE, 2010).

Key:
Assay in all cases: radioligand binding
[1] = target: OppAMTB mutant D494N (Mycobacterium tuberculosis) (UniProt P9WGU5)
[2] = target: OppAMTB mutant F496D (Mycobacterium tuberculosis) (UniProt P9WGU5)
[3] = target: OppAMTB mutant G109S (Mycobacterium tuberculosis) (UniProt P9WGU5)
[4] = target: OppAMTB mutant N110A (Mycobacterium tuberculosis) (UniProt P9WGU5)
[5] = target: OppAMTB mutant N230G (Mycobacterium tuberculosis) (UniProt P9WGU5)

Measured: loss of binding activity against wild type

bradykinin (nonapeptide)
> 50%: all assays above

glutathione (tripeptide)
> 50%: all assays above
